The test has as its target yeast ubiquitin (yeast, UniProt P0CG63 1-76). As to the kind of experiment: NMR titration.

Sequence of yeast ubiquitin (P0CG63 1-76): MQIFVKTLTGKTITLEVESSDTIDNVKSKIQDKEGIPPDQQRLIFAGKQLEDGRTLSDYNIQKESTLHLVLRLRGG

B1: S. cerevisiae Rev1 UBM2 (residues 804-857), GB1-fusion protein (domain or fragment, UniProt P12689 804-857, looked up)
chain: LEVNDLPSTMEEQFMNELPTQIRAEVRHDLRIQKKIQQTKLGNLQEKIKRREES
Regarding B1, the binding result was “binds”.

For the origin of these results see paper PMC2841503 (Molecular cell, 2010).
